Results on three molecules are retold here after paper PMC4178959 (The Journal of Cell Biology, 2014).

Several values for one entry are separate records, joined by “and”; a condition that tells them apart may be missing. Identical values can stand only once.

The chains are these.
B1: GST–procaspase 8 (full-length procaspase 8 fused to GST) (natural protein, UniProt Q14790 1-479, looked up)
chain: MDFSRNLYDIGEQLDSEDLASLKFLSLDYIPQRKQEPIKDALMLFQRLQEKRMLEESNLSFLKELLFRINRLDLLITYLNTRKEEMERELQTPGRAQISAYRVMLYQISEEVSRSELRSFKFLLQEEISKCKLDDDMNLLDIFIEMEKRVILGEGKLDILKRVCAQINKSLLKIINDYEEFSKERSSSLEGSPDEFSNGEELCGVMTISDSPREQDSESQTLDKVYQMKSKPRGYCLIINNHNFAKAREKVPKLHSIRDRNGTHLDAGALTTTFEELHFEIKPHDDCTVEQIYEILKIYQLMDHSNMDCFICCILSHGDKGIIYGTDGQEAPIYELTSQFTGLKCPSLAGKPKVFFIQACQGDNYQKGIPVETDSEEQPYLEMDLSSPQTRYIPDEADFLLGMATVNNCVSYRNPAEGTWYIQSLCQSLRERCPRGDDILTILTEVNYEVSNKDDKKNMGKQMPQPTFTLRKKLVFPSD
B2: His6-BakΔTM (recombinant His-tagged Bak lacking the transmembrane domain, aa 1–186) (domain or fragment, UniProt Q16611 1-186, looked up)
chain: MASGQGPGPPRQECGEPALPSASEEQVAQDTEEVFRSYVFYRHQQEQEAEGVAAPADPEMVTLPLQPSSTMGQVGRQLAIIGDDINRRYDSEFQTMLQHLQPTAENAYEYFTKIATSLFESGINWGRVVALLGFGYRLALHVYQHGLTGFLGQVTRFVVDFMLHHCIARWIAQRGGWVAALNLGNG

The target in data set [1] is B2. Briefly: SPR. For orientation: In SPR one partner is held on a chip, and binding of the other changes the refractive index at the surface.
The target of the next data set is GST-Casp8p41 (UniProt Q14790 1-355). Briefly: SPR.
The target in the next data set is GST-Casp8p41 V150A/L157A (UniProt Q14790 1-355, V150A | L157A). The data set can be described thus: SPR.
For the next data set, the target named is GST-Casp8p41 V150E/L157K (UniProt Q14790 1-355, V150E | L157K). Briefly: SPR.
The data set “cross-linking” deals with the molecule itself. Briefly: cross-linking.

Consider RPEIWIAQELRRIGDEFNAYYARRVF [Bim BH3 peptide], for which the binding result in data set [1] was “binds”.

As to B1, the “fold less tight binding than GST-Casp8p41” value in data set [1] turned out to be 100 fold.

Broadly, the Kd is the concentration at which binding is half-saturated. The low end stands for higher affinity, the high end for lower affinity. Usually stoichiometry N stands for the number of molecules, sites or subunits per partner or assembly. Take B2: the dissociation constant Kd in the data set with GST-Casp8p41 was 16 nM and 19 nM; in the data set with GST-Casp8p41 V150A/L157A, 22 nM; in the data set with GST-Casp8p41 V150E/L157K, 400 nM. In addition, in the data set “cross-linking”, the “stoichiometry N” value is 2.
